For orientation: Km means the concentration of substrate that gives half-maximal velocity. The kcat is the maximal rate divided by the concentration of active sites.

Holding throughout (assay type): biochemical
Data set [1] in a line: Hydrolysis of 4-methylumbelliferyl-β-D-galactoside, initial rates. The conditions noted are these: 4-MUGal, 80° C., pH 6.5. The procedure: (§1) Parameters were determined by the method of initial rates. Activity was measured in time course assays of the hydrolysis of 4-methylumbelliferyl-β-D-glycosides (β-D-gluco, β-D-galacto, β-D-fuco, β-D-manno, β-D-xylo, β-D-glucurono) at 5-15 concentrations (0.001-1.5 mM) incubated at 80° C. in 50 mM sodium phosphate buffer, pH 6.5. Reactions were terminated at 2, 5, 10, 15 min by the addition of 100 μl of ice cold 1M NazCO3, pH 10 and analyzed (Labsystems Fluoroscan Ascent plate reader, […]). KM and kcat were derived by fitting the initial rates to hyperbolic Michaelis-Menten curves using GraFit 4 (Erithacus Software Ltd, Staines, UK).
(§2) Determination of the Michaelis-Menten parameters for the WT and mutant enzymes was performed at pH 6.5 at 80° C. for a broad range of representative, fluorophore-containing 4-methylumbelliferyl glycoside substrates, which allowed activities to be determined with a high degree of sensitivity (Table). Under these optimized assay conditions, the glucoside (Glc), galactoside (Gal) and fucoside (Fuc) substrates were hydrolysed well by SSβG-WT, but the xyloside (Xyl) substrate was hydrolysed relatively poorly (approx. 3% of turnover as determined by kcat compared with β-D-glucoside). […] In all cases the absolute D-stereospecificity and β-stereoselectivity of SSβG was maintained and no activity was detected towards L- or α-glycoside substrates.

A short description of data set [2]: Hydrolysis of 4-methylumbelliferyl-β-D-xyloside, initial rates. As to conditions: 80° C., pH 6.5. The protocol: as §1, §2
Data set [3] can be described thus: Parallel one-pot glycoside synthesis (transglycosylation to MeOH). As to conditions: 50° C., 1:9 MeOH:phosphate buffer pH 6.5. The procedure:
Enzyme (WT, […] or E432C, 1 mg) was added to a mixed solution (1 mL) of para-nitrophenyl (pNP) β-D-manno-, galacto-, gluco- and xylo- pyranosides (0.03 mmol of each) in 1:9 MeOH:phosphate buffer (pH 6.5) and incubated at 50° C. for 45 min (WT), 4 h (WT), 8 h (W433C, E432C). After this time the solutions were extracted with EtOAc to remove para-nitrophenol and passed through short Sephadex and Celite:Graphite (1:1) columns to remove protein, pNP-glycoside and remaining para-nitrophenol. Solvent was removed and product mixtures were analysed by ^1H NMR and ESMS. Yields based on donor were calculated from integration of anomeric proton resonances in ^1H NMR (D2O, 500 MHz): α-Gal (δ 5.12, d, […]), α-Glc (δ 5.08, d, 3.8 Hz), α-Xyl (δ 5.04, d, J=3.4 Hz), α-Man (δ 5.03, d, J=1.8 Hz), β-Man (δ 4.75, s), β-Glc (δ 4.49, d, J=8.0 Hz), P-Gal (δ 4.45, d, 7.9 Hz), Me-β-Man (δ 4.44, s), β-Xyl (δ 4.42, d, J=7.8 Hz), Me-β-Glc (δ 4.23, d, J 8.1 Hz), Me-β-Xyl (δ 4.18, d, J=7.8 Hz), Me-β-Gal (δ 4.17, d, J=8.0 Hz).
Scheme 1: Parallel glycoside syntheses using SSβG-WT, -E432C and -W433C as catalysts. […] Such balanced libraries are not produced by SSβG-WT even under varying reaction times.

B1: WT: Wild type β-glycosidase from Sulfolobus solfataricus (SEQ ID NO: 2), recombinant with N-terminal His6-tag (protein, listed as Sulfolobus solfataricus)
chain: MYSFPNSFRFGWSQAGFQSEMGTPGSEDPNTDWYKWVHDPENMAAGLVSGDLPENGPGYWGNYKTFHDNAQKMGLKIARLNVEWSRIFPNPLPRPQNFDESKQDVTEVEINENELKRLDEYANKDALNHYREIFKDLKSRGLYFILNMYHWPLPLWLHDPIRVRRGDFTGPSGWLSTRTVYEFARFSAYIAWKFDDLVDEYSTMNEPNVVGGLGYVGVKSGFPPGYLSFELSRRHMYNIIQAHARAYDGIKSVSKKPVGIIYANSSFQPLTDKDMEAVEMAENDNRWWFFDAIIRGEITRGNEKIVRDDLKGRLDWIGVNYYTRTVVKRTEKGYVSLGGYGHGCERNSVSLAGLPTSDFGWEFFPEGLYDVLTKYWNRYHLYMYVTENGIADDADYQRPYYLVSHVYQVHRAINSGADVRGYLHWSLADNYEWASGFSMRFGLLKVDYNTKRLYWRPSALVYREIATNGAITDEIEHLNSVPPVKPLRH
modifications: N-terminal His6 tag
Turning to B1, in data set [1], the Km was found to be 66 ± 17 µM and the catalytic constant (kcat) was determined as 98 ± 7 s⁻¹. In data set [2] (4-MUXyl), the Michaelis-Menten constant (Km) came out at 130 ± 30 µM and the kcat was 3.8 ± 0.3 s⁻¹. Also, the “turnover (kcat) towards xyloside compared with β-D-glucoside” value in data set [2] is listed as “approx. 3%”. Moreover, in data set [3] (45 min), the “Yield of Products, product 1 (β-glycoside of Glc)” value amounted to 40%; the “Yield of Products, product 2 (β-glycoside of Gal)” value came to 33%; the “Yield of Products, product 3 (β-glycoside of Man)” value is listed as 2%; the “Yield of Products, product 4 (β-glycoside of Xyl)” value came to 3%. Besides, in data set [3] (45 min), the “Yield of Products, product 5” value amounted to 14% and the “Yield of Products, product 6” value stood at 8%. Besides, in data set [3] (4 h), the “Yield of Products, product 3 (β-glycoside of Man)” value amounted to 8%; the “Yield of Products, product 4 (β-glycoside of Xyl)” value is 20%; the “Yield of Products, product 5” value is 33%; the “Yield of Products, product 6” value is 30%. In data set [3] (4 h), the “Yield of Products, product 7” value stood at 4% and the “Yield of Products, product 8” value came out at 5%.
